Measurements published in PMC4176381, “A combination of computational and experimental approaches identifies DNA sequence constraints associated with target site binding specificity of the transcription factor CSL”.

Tests used:
CSL (RBPJ) [1] = biological target: T1, CSL (RBPJ) (Mus musculus, UniProt P31266 53-474); assay: ITC; K = 2.2 +/- 1.4 x10^7 M-1; n=3; ITC: 50 mM sodium phosphate pH 6.5, 150 mM NaCl, 10 C (10 uM CSL in cell, 100 uM DNA in syringe). EMSA: 150 mM KCl, 50 mM Tris pH 7.4, 1 mM DTT, 2% polyvinyl alcohol, 30 ng/ul poly(dI-dC), on ice 30 min, 25 fmol biotin probe in 5 ul; conditions: protein: recombinant; tags: GST tag cleaved off
CSL (RBPJ) [2] = biological target: T1, CSL (RBPJ); assay: ITC; K = 2.0 +/- 0.5 x10^6 M-1; n=3; ITC: 50 mM sodium phosphate pH 6.5, 150 mM NaCl, 10 C (10 uM CSL in cell, 100 uM DNA in syringe). EMSA: 150 mM KCl, 50 mM Tris pH 7.4, 1 mM DTT, 2% polyvinyl alcohol, 30 ng/ul poly(dI-dC), on ice 30 min, 25 fmol biotin probe in 5 ul; conditions: protein: recombinant; tags: GST tag cleaved off
GST-Su(H) (CSL) [3] = biological target: T2, GST-Su(H) (CSL) (Drosophila melanogaster?, UniProt P28159 110-594); assay: competition; failed to compete at 125x; ITC: 50 mM sodium phosphate pH 6.5, 150 mM NaCl, 10 C (10 uM CSL in cell, 100 uM DNA in syringe). EMSA: 150 mM KCl, 50 mM Tris pH 7.4, 1 mM DTT, 2% polyvinyl alcohol, 30 ng/ul poly(dI-dC), on ice 30 min, 25 fmol biotin probe in 5 ul; conditions: protein: recombinant; tags: N-terminal GST; blunt
GST-Su(H) (CSL) [4] = biological target: T2, GST-Su(H) (CSL); assay: competition; not detectable at 125x excess; ITC: 50 mM sodium phosphate pH 6.5, 150 mM NaCl, 10 C (10 uM CSL in cell, 100 uM DNA in syringe). EMSA: 150 mM KCl, 50 mM Tris pH 7.4, 1 mM DTT, 2% polyvinyl alcohol, 30 ng/ul poly(dI-dC), on ice 30 min, 25 fmol biotin probe in 5 ul; conditions: protein: recombinant; tags: N-terminal GST; blunt
CSL (RBPJ) [5] = biological target: T1, CSL (RBPJ); assay: ITC; K = 5.9 +/- 1.0 x10^5 M-1; n=3; ITC: 50 mM sodium phosphate pH 6.5, 150 mM NaCl, 10 C (10 uM CSL in cell, 100 uM DNA in syringe). EMSA: 150 mM KCl, 50 mM Tris pH 7.4, 1 mM DTT, 2% polyvinyl alcohol, 30 ng/ul poly(dI-dC), on ice 30 min, 25 fmol biotin probe in 5 ul; conditions: protein: recombinant; tags: GST tag cleaved off
CSL (RBPJ) [6] = biological target: T1, CSL (RBPJ); assay: ITC; no binding detected; ITC: 50 mM sodium phosphate pH 6.5, 150 mM NaCl, 10 C (10 uM CSL in cell, 100 uM DNA in syringe). EMSA: 150 mM KCl, 50 mM Tris pH 7.4, 1 mM DTT, 2% polyvinyl alcohol, 30 ng/ul poly(dI-dC), on ice 30 min, 25 fmol biotin probe in 5 ul; conditions: protein: recombinant; tags: GST tag cleaved off
GST-Su(H) (CSL) [7] = biological target: T2, GST-Su(H) (CSL); assay: competition; EMSA, labeled M1 probe; 2.84-fold at 10x; ITC: 50 mM sodium phosphate pH 6.5, 150 mM NaCl, 10 C (10 uM CSL in cell, 100 uM DNA in syringe). EMSA: 150 mM KCl, 50 mM Tris pH 7.4, 1 mM DTT, 2% polyvinyl alcohol, 30 ng/ul poly(dI-dC), on ice 30 min, 25 fmol biotin probe in 5 ul; conditions: protein: recombinant; tags: N-terminal GST; blunt
GST-Su(H) (CSL) [8] = biological target: T2, GST-Su(H) (CSL); assay: competition; EMSA, labeled M1 probe; 2.4-fold vs M3; ITC: 50 mM sodium phosphate pH 6.5, 150 mM NaCl, 10 C (10 uM CSL in cell, 100 uM DNA in syringe). EMSA: 150 mM KCl, 50 mM Tris pH 7.4, 1 mM DTT, 2% polyvinyl alcohol, 30 ng/ul poly(dI-dC), on ice 30 min, 25 fmol biotin probe in 5 ul; conditions: protein: recombinant; tags: N-terminal GST; blunt
GST-Su(H) (CSL) [9] = biological target: T2, GST-Su(H) (CSL); assay: EMSA; labeled probe; self-competes at 25x excess; ITC: 50 mM sodium phosphate pH 6.5, 150 mM NaCl, 10 C (10 uM CSL in cell, 100 uM DNA in syringe). EMSA: 150 mM KCl, 50 mM Tris pH 7.4, 1 mM DTT, 2% polyvinyl alcohol, 30 ng/ul poly(dI-dC), on ice 30 min, 25 fmol biotin probe in 5 ul; conditions: protein: recombinant; tags: N-terminal GST; label: 3' biotin when used as probe; blunt

T1 sequence (P31266 53-474): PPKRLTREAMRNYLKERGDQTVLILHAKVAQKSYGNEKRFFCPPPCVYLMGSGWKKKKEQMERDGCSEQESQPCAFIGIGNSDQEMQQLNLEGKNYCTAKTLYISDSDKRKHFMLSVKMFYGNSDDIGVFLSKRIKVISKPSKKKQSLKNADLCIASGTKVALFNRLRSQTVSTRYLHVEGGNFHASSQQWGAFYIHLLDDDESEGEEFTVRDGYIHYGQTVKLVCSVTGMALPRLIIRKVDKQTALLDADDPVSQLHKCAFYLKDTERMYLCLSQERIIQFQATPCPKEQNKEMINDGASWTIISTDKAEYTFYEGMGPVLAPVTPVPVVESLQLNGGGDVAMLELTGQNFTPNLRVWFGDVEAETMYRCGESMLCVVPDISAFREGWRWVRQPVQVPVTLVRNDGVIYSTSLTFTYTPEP
T2 sequence (P28159 110-594): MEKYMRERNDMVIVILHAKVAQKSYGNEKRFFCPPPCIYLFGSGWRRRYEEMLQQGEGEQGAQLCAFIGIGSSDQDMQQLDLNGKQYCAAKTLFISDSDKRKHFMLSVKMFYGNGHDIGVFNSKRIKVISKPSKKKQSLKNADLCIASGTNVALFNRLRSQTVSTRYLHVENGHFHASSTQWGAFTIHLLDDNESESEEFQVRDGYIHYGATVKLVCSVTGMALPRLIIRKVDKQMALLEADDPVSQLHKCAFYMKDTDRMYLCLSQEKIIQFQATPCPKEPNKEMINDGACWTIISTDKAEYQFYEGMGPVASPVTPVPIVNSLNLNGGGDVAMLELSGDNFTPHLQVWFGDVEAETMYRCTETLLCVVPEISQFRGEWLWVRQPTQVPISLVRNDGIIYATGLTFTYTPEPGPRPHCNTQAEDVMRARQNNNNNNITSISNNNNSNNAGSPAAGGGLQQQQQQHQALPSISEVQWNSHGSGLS
T2 sequence (P28159 110-594): as above

B1: ITC duplex CGTGGGAA (dsDNA)
DNA 1: GTTACCGTGGGAAAGAAAG
DNA 2: CTTTCTTTCCCACGGTAAC
Kd (CSL (RBPJ) [1]): 60 nM

B2: ITC duplex TGTGGGAA (dsDNA)
DNA 1: GTTACTGTGGGAAAGAAAG
DNA 2: CTTTCTTTCCCACAGTAAC
Kd (CSL (RBPJ) [2]): 500 nM

B3: M8 (S7, TATAAGAA) (dsDNA)
DNA 1: ACCGAAACTATAAGAACTGGTAGAAAG
DNA 2: CTTTCTACCAGTTCTTATAGTTTCGGT
binding result (GST-Su(H) (CSL) [3]): no binding

B4: M11 (S10, CATGGGGA) (dsDNA)
DNA 1: ACCGAAACCATGGGGACTGGTAGAAAG
DNA 2: CTTTCTACCAGTCCCCATGGTTTCGGT
binding result (GST-Su(H) (CSL) [4]): no binding

B5: ITC duplex CGTGTGAC (dsDNA)
DNA 1: GTTACCGTGTGACAGAAAG
DNA 2: CTTTCTGTCACACGGTAAC
Kd (CSL (RBPJ) [5]): 1720 nM

B6: ITC duplex TCATACCT (dsDNA)
DNA 1: GCTACTCATACCTAGAACG
DNA 2: CGTTCTAGGTATGAGTAGC
binding result (CSL (RBPJ) [6]): no binding

B7: M3 (S2, TGTGGGAA) (dsDNA)
DNA 1: ACCGAAACTGTGGGAACTGGTAGAAAG
DNA 2: CTTTCTACCAGTTCCCACTGTTTCGGT
binding signal (GST-Su(H) (CSL) [7]): 3.67 fold difference vs M1 at 25x excess

B8: M4 (S3, CGTGTGAA) (dsDNA)
DNA 1: ACCGAAACCGTGTGAACTGGTAGAAAG
DNA 2: CTTTCTACCAGTTCACACGGTTTCGGT
binding signal (GST-Su(H) (CSL) [8]): 9 fold difference vs M1 at 25x excess

B9: M1 (S1, CGTGGGAA) (dsDNA)
DNA 1: ACCGAAACCGTGGGAACTGGTAGAAAG
DNA 2: CTTTCTACCAGTTCCCACGGTTTCGGT
binding result (GST-Su(H) (CSL) [9]): binds
